{"source": "paper PMC3034650", "about": "(FEBS letters, 2010)", "binders": {"B1": {"name": "NFκB (p50(248-321)/p65(190-321)) (complex)", "chain 1": "LKIVRMDRTAGCVTGGEEIYLLCDKVQKDDIQIRFYEEEENGGVWEGFGDFSPTDVHRQFAIVFKTPKYKDVNI", "chain 2": "NTAELKICRVNRNSGSCLGGDEIFLLCDKVQKEDIEVYFTGPGWEARGSFSQADVHRQVAIVFRTPPYADPSLQAPVRVSMQLRRPSDRELSEPMEFQYLPDTDDRHRIEEKRKRTYETFKSIMKKSPFNGP", "modifications": "biotin at the N-terminus"}}, "target": "T1, Human IκBα(67-287), unhydroxylated (human, UniProt P25963 67-287)", "T1 sequence (looked up)": "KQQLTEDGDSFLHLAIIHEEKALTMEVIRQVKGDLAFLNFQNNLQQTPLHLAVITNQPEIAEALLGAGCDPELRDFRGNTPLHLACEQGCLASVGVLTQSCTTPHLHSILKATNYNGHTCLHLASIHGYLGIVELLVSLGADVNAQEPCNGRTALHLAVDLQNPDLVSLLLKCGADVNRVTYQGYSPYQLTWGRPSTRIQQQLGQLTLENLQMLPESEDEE", "test": "SPR"}
{"binder": "B1", "values": [{"measurement": "Kd", "value": "62 ± 12", "unit": "pM"}]}
